From IntAct's records for PubMed 21642537

target: T1, PKD2, Q13563-1
T1 sequence: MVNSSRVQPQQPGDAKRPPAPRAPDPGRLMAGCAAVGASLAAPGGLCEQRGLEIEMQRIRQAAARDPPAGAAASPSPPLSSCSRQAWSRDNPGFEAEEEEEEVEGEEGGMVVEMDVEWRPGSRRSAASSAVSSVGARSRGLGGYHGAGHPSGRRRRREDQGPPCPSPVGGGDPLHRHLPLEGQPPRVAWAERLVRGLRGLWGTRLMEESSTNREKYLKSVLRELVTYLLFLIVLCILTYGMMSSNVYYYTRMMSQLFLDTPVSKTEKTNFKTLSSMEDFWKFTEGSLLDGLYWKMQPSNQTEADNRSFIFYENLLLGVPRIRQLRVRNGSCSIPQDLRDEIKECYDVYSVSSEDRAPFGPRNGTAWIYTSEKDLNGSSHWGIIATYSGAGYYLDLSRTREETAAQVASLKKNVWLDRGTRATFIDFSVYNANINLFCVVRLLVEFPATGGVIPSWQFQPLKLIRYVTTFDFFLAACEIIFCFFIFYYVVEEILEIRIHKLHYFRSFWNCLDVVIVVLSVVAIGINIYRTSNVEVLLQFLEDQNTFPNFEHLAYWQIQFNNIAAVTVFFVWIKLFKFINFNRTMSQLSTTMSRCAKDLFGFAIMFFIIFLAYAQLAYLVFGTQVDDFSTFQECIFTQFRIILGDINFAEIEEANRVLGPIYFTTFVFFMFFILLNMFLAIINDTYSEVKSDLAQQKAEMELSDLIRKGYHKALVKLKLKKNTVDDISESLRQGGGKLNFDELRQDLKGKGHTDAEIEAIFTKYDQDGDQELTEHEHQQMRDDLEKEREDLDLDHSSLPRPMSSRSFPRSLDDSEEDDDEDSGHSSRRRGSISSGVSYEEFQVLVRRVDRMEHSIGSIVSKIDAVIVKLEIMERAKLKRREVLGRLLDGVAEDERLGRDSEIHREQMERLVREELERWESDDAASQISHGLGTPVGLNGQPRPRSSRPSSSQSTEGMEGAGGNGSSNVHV

Substance	effect of a mutation on the interaction
Polycystin-1 (Homo sapiens) (from UniProt P98161-3) L4228A;N4229A	decreasing interaction strength
Polycystin-1 (Homo sapiens) (from UniProt P98161-3) L4238A	decreasing interaction strength
Polycystin-1 (Homo sapiens) (from UniProt P98161-3) L4238A;E4239A	disrupting interaction strength
Polycystin-1 (Homo sapiens) (from UniProt P98161-3) L4238A;L4242A	disrupting interaction strength
Polycystin-1 (Homo sapiens) (from UniProt P98161-3) L4238A;L4242A;L4245A	decreasing interaction strength
Polycystin-1 (Homo sapiens) (from UniProt P98161-3) V4217A;L4228A	decreasing interaction strength

More lines, now with the values ahead:

effect of a mutation on the interaction	Substance
decreasing interaction strength	Polycystin-1 (Homo sapiens) (from UniProt P98161-3) D4234A;Y4236A
decreasing interaction strength	Polycystin-1 (Homo sapiens) (from UniProt P98161-3) D4234R
decreasing interaction strength	Polycystin-1 (Homo sapiens) (from UniProt P98161-3) F4225A;L4228A
decreasing interaction strength	Polycystin-1 (Homo sapiens) (from UniProt P98161-3) F4225A;R4227A
decreasing interaction strength	Polycystin-1 (Homo sapiens) (from UniProt P98161-3) Y4236R

target: T1, PKD2, Q13563-1; remark: another data set of the same source

effect of a mutation on the interaction	Substance
decreasing interaction strength	Polycystin-1 (Mus musculus), O08852 L4229A;E4230A
decreasing interaction strength	Polycystin-1 (Mus musculus), O08852 L4229A;L4233A
